The results in this text go back to US20260078195A1 (BEIJING MABWORKS BIOTECH, published 2026).

Test [1] addresses T1, human CD3 complex on Jurkat cells (human, UniProt P07766 23-207; P04234 22-171; P09693 23-182; P20963 22-164).
T1 construct: whole, on cells; Endogenous CD3 complex of Jurkat / JURKAT-NFAT-Luc cells; also called human Jurkat T cells; CD3 on the surface of JURKAT-NFAT-Luc cells
Description: FACS on Jurkat cells, PE goat anti-human IgG (H+L) secondary antibody, MFI. As to the method: (§1) The cells were re-suspended in PBS, counted, and centrifuged again to remove the supernatants. The cells were re-suspended in 2% FBS-PBS, to adjust the cell concentration to 4×10⁶/ml. Each kind of cells were added to 96-well U-bottom plates, 50 μl/well. The antibodies were diluted in 2% FBS-PBS, 5-fold serial dilution starting at 40 μg/ml, obtaining 12 concentrations in total. The 96-well plates were added with 50 μl antibody dilution, mixed well, and incubated at room temperature for 1 h. The plates were washed by 2% FBS-PBS, 200 μl/well, for three times. The plates were added with PE labelled goat-anti-human IgG (H+L) secondary antibody (1:500 diluted), 50 μl/well, and incubated at room temperature for 45 min. The plates were washed by 2% FBS-PBS, 200 μl/well, for three times. Finally the plates were added with 150 μl 2% FBS-PBS to re-suspend the cells, and the cells were tested in a flow cytometer. The data was processed in FlowJo and analyzed in GraphPad.

In test [2] the target is T2, monkey GPRC5D expressed on HEK293T cells (monkey, UniProt Q9NZD1 1-298 (human entry)).
T2 construct: also called HEK293T/monkey GPRC5D cells
T2 chain: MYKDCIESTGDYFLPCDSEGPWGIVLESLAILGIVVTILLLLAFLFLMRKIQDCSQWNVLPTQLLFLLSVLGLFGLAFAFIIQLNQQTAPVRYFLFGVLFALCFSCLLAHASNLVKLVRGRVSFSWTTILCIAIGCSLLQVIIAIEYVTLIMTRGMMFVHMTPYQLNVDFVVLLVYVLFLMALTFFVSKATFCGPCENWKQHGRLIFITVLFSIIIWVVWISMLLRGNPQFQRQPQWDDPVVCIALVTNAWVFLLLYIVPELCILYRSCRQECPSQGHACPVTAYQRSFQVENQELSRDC
Description: FACS on HEK293T/monkey GPRC5D cells, PE goat anti-human IgG (H+L) secondary antibody, MFI. How it is done: as §1

Test [3] deals with T3, mouse BCMA expressed on HEK293A cells (mouse, UniProt O88472 1-185).
T3 construct: also called HEK293A/mouse BCMA cells
T3 sequence: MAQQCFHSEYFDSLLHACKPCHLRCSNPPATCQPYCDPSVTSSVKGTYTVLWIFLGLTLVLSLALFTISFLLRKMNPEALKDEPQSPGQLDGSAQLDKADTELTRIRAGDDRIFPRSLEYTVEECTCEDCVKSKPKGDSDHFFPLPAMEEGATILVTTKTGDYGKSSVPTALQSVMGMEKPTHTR
Description: FACS on HEK293A/mouse BCMA cells, PE goat anti-human IgG (H+L) secondary antibody, MFI. How it is done: as §1

Test [4] addresses T4, human BCMA expressed on HEK293A cells (human, UniProt Q02223 1-184).
T4 construct: also called HEK293A/human BCMA cells
T4 sequence: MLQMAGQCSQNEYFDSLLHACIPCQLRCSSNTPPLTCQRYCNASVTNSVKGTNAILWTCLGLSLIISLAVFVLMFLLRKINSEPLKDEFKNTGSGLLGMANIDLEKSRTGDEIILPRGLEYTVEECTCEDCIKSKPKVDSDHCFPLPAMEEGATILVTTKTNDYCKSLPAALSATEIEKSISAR
Nature of the test: FACS on HEK293A/human BCMA cells, PE goat anti-human IgG (H+L) secondary antibody, MFI. How it is done:
as §1

Test [5] addresses T5, monkey BCMA expressed on HEK293A cells (monkey, UniProt Q02223 1-184 (human entry)).
T5 construct: also called HEK293A/monkey BCMA cells
Nature of the test: FACS on HEK293A/monkey BCMA cells, PE goat anti-human IgG (H+L) secondary antibody, MFI. How it is done:
as §1

Test [6] addresses T6, human GPRC5D expressed on HEK293T cells (human, UniProt Q9NZD1 1-345).
T6 construct: also called HEK293T/human GPRC5D cells
Nature of the test: FACS on HEK293T/human GPRC5D cells, PE goat anti-human IgG (H+L) secondary antibody, MFI. As to the method:
as §1

For test [7], the target named is T7, human CD3D&E protein (Cat #: CT038-H2508H, Sino biological) (human, UniProt P04234 22-105; P07766 23-126).
T7 construct: Bought recombinant delta/epsilon complex used as SPR analyte; also called CD3D&E complex
Nature of the test: SPR (BIAcore 8K), antibody captured by anti-human Fc on CM5 chip, antigen as analyte. How it is done: (§2) The mouse anti-human Fe antibody (Cat #:BR100839, cytiva) was coupled to the surface of a CM5 chip. The antibody to be tested was diluted to 1 μg/ml with the HBS-EP buffer (Cat #:BR-1006-69, GE Life Sciences), to ensure about 100 RU of the antibody was captured by the anti-human Fe antibody. The human BCMA antigen (Cat #:BCA-H522y, ACRO), human CD3D&E protein (Cat #: CT038-H2508H, Sino biological), and human GPRC5D antigen (Cat #:HM05P, Kactus Biosystems) were diluted with HBS-EP buffer to […], respectively. Each protein at different concentrations was flowed through the surface of the stationary phase. Chips were regenerated by 3 M MgCl₂ solution. The kinetics assay was run with the Kinetics Wizard in BIAcore 8K's control software. […] The data was fitted in BIAcore 8K's evaluation software, and KD values of the test antibodies to the above antigens were determined and summarized in Table 1.
(In SPR one partner is held on a chip, and binding of the other changes the refractive index at the surface.)

For test [8], the target named is T8, human BCMA antigen (Cat #:BCA-H522y, ACRO) (human, UniProt Q02223 1-54).
T8 construct: Bought recombinant protein used as SPR analyte
T8 sequence: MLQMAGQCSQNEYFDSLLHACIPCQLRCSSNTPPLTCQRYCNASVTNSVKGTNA
The test is described as above. How it is done: as §2

The target of test [9] is T9, human GPRC5D antigen (Cat #:HM05P, Kactus Biosystems) (human, UniProt Q9NZD1 1-345, limits assumed).
T9 construct: Bought antigen used as SPR analyte
The test is described as above. As to the method: as §2

T7 sequence (P04234 22-105, chain 1 of 2): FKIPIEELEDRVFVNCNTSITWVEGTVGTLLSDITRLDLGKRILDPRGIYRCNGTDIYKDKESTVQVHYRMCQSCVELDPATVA
T7 sequence (P07766 23-126, chain 2 of 2): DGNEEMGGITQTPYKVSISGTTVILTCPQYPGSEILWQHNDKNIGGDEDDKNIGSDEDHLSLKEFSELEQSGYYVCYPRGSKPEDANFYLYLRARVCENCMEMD
T9 sequence (Q9NZD1 whole entry): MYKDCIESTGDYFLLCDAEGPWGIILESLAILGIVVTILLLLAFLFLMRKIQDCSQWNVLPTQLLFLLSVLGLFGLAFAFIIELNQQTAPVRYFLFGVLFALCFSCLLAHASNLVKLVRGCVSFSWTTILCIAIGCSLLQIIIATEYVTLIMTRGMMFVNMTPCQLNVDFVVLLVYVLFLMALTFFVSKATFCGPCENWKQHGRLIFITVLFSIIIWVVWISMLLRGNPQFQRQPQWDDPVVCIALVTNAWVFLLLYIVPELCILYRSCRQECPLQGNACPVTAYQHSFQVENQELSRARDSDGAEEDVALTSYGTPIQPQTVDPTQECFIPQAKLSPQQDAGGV
T1 sequence (P07766 23-207, chain 1 of 4): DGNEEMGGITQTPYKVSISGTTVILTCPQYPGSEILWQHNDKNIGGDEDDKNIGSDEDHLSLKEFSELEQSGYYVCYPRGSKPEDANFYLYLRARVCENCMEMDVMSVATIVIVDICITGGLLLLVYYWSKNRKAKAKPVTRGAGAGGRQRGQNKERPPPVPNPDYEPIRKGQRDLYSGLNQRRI
T1 sequence (P04234 22-171, chain 2 of 4): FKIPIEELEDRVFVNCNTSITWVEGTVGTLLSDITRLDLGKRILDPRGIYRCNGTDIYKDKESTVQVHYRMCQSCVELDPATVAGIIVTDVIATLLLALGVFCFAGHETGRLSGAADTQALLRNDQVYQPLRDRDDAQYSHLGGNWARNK
T1 sequence (P09693 23-182, chain 3 of 4): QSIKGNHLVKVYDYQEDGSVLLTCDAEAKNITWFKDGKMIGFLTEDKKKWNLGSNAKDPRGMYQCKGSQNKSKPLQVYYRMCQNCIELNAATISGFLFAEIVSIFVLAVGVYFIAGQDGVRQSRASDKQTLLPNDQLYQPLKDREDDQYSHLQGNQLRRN
T1 sequence (P20963 22-164, chain 4 of 4): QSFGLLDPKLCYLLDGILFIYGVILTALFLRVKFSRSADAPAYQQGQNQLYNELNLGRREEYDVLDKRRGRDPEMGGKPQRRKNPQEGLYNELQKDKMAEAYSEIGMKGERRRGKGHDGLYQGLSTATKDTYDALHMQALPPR
T5 sequence (Q02223 other isoform, or with tags, fused parts or gaps): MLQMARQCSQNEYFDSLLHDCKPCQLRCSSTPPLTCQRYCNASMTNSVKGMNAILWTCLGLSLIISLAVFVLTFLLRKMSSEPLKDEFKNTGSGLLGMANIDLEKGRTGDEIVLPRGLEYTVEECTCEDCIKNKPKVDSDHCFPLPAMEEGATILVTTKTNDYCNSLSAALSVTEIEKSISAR
T6 sequence (Q9NZD1 whole entry): as the sequence (Q9NZD1 whole entry) above

B1: JNJ-64407564 (bi-specific GPRC5D×CD3 antibody) (bispecific antibody)
chain 1: QVQLVQSGAEVKKPGASVKVSCKASGYSFTGYTMNWVRQAPGQGLEWMGLINPYNSDTNYAQKLQGRVTMTTDTSTSTAYMELRSLRSDDTAVYYCARVALRVALDYWGQGTLVTVSS
chain 2: DIQMTQSPSSLSASVGDRVTITCKASQNVATHVGWYQQKPGKAPKRLIYSASYRYSGVPSRFSGSGSGTEFTLTISNLQPEDFATYYCQQYNRYPYTFGQGTKLEIK
chain 3: EVQLVESGGGLVQPGGSLRLSCAASGFTFNTYAMNWVRQAPGKGLEWVARIRSKYNNYATYYAASVKGRFTISRDDSKNSLYLQMNSLKTEDTAVYYCARHGNFGNSYVSWFAYWGQGTLVTVSS
chain 4: QTVVTQEPSLTVSPGGTVTLTCRSSTGAVTTSNYANWVQQKPGQAPRGLIGGTNKRAPGTPARFSGSLLGGKAALTLSGVQPEDEAEYYCALWYSNLWVFGGGTKLTVL
Broadly, the EC50 (read off the curve) is the concentration giving half of the maximal effect. In the case of B1, the half-maximal effective concentration (EC50 (read off the curve)) in test [1] is about 0.06 µg/mL.

B2: MBS314 (tri-specific GPRC5D×BCMA×CD3 antibody) (other)
heavy 1: QVQLVQSGAEVKKPGASVKVSCKASGYTFTNHIIHWVRQAPGQGLEWMGYINPYPGYHGYNDKFSGRATMTSDTSTSTVYMELSSLRSEDTAVYYCARDGYYRDQDVLDYWGQGTLVTVSSGGGGSGGGGSGGGGSGGGGSDIQMTQSPSSLSASVGDRVTITCKASQDISQYLNWYQQKPGKAPKLLIYYTSGLHPGVPSRFSGSGSGTDFTFTISSLEPEDEATYYCQQGYALPWTFGQGTKLTAKGGGGSGGGGSGGGGSEVQLVESGGGLVQPGRSLRLSCAASGFTFDDFAMHWVRQAPGKGLEWVSGITWNSGSVGYADSVKGRFTISRDNAKKSLYLQMNSLRAEDTALYYCAKDRSGYGHYYYGMDVWGQGTTVTVASASTKGPSVFPLAPSSKSTSGGTAALGCLVKDYFPEPVTVSWNSGALTSGVHTFPAVLQSSGLYSLSSVVTVPSSSLGTQTYICNVNHKPSNTKVDKKVEPKSCDKTHTCPPCPAPEAAGGPSVFLFPPKPKDTLMISRTPEVTCVVVDVSHEDPEVKFNWYVDGVEVHNAKTKPREEQYASTYRVVSVLTVLHQDWLNGKEYKCKVSNKALPAPIEKTISKAKGQPREPQVYTLPPSREEMTKNQVSLWCLVKGFYPSDIAVEWESNGQPENNYKTTPPVLDSDGSFFLYSKLTVDKSRWQQGNVFSCSVMHEALHNHYTQKSLSLSPGK
light 1: not shown
heavy 2: QVQLQESGPGLVKPSETLSLTCTVSGYSITSDYAWNWIRQPPGKGLEWMGYISYSGSATYSPSLKSRITISRDTSKNQFSLKLSSVTAADTAVYYCARGGIAGRGRWGAMDYWGQGTTVTVSSASTKGPSVFPLAPSSKSTSGGTAALGCLVKDYFPEPVTVSWNSGALTSGVHTFPAVLQSSGLYSLSSVVTVPSSSLGTQTYICNVNHKPSNTKVDKKVEPKSCDKTHTCPPCPAPEAAGGPSVFLFPPKPKDTLMISRTPEVTCVVVDVSHEDPEVKFNWYVDGVEVHNAKTKPREEQYASTYRVVSVLTVLHQDWLNGKEYKCKVSNKALPAPIEKTISKAKGQPREPQVYTLPPSREEMTKNQVSLSCAVKGFYPSDIAVEWESNGQPENNYKTTPPVLDSDGSFFLVSKLTVDKSRWQQGNVFSCSVMHEALHNHYTQKSLSLSPGK
light 2: DIQMTQSPSSLSASVGDRVTITCKASQNVGTNVAWYQQKPGQSPKALIYSASYRDSGVPDRFSGSGSGTDFTLTISSLQPEDFATYYCQQYKSYPLTFGQGTRLEIKRTVAAPSVFIFPPSDEQLKSGTASVVCLLNNFYPREAKVQWKVDNALQSGNSQESVTEQDSKDSTYSLSSTLTLSKADYEKHKVYACEVTHQGLSSPVTKSFNRGEC
notes: also called antibody MBS314; tri-specific CD3×BCMA×GPRC5D antibody
A word on the Kd: it is the free concentration of one partner at which half of the binding sites on the other are occupied at equilibrium, for simple one-to-one binding. The koff is a measure of how fast the partners let go of each other. Usually kon stands for the rate constant with which the complex forms. As for B2, the “EC50 (read off the curve)” value in test [2] is about 0.4 µg/mL; in test [4], about 1 µg/mL; in test [5], about 0.8 µg/mL; in test [6], about 0.4 µg/mL. Besides, the binding result in test [3] was “no binding”; in test [1], “binds”. The results for the Kd in test [7], in test [8] and in test [9] were 249 nM, 0.441 nM and 3.53 nM, respectively. The koff in test [7] worked out at 0.00774 s⁻¹; in test [8] it was 0.000283 s⁻¹; in [9] it was 0.00174 s⁻¹. Further, the kon in test [7] was 31100 M⁻¹ s⁻¹; in test [8], 642000 M⁻¹ s⁻¹; in test [9], 493000 M⁻¹ s⁻¹.
